How the values were obtained:
[1] = biological target: the molecule itself; assay: SEC-MALS; injected at 3 mg/ml (83 uM) onto Superdex 200 10/30, TBS (20 mM Tris, 150 mM NaCl, pH 7.5), 0.2 ml/min; three-detector method for the polypeptide mass
[2] = biological target: the molecule itself; assay: AUC; sedimentation velocity, 20 °C, 40,000 rpm, PBS, 0.028 (0.77 uM) to 3.4 mg/ml (94 uM); c(s) peaks of monomer and dimer integrated and fitted to a monomer-dimer equilibrium; dimer to monomers

Protein	stoichiometry N [1]	Kd [2]
mouse decorin core protein, wild type (residues 45-354) (domain or fragment, N-linked glycans (four consensus sites for N-linked glycosylation), vector-encoded residues left at the N-terminus after cleavage of the BM-40 signal peptide; decorin, mouse, UniProt P28654, residues 45-354; the numbering includes the signal peptide; corresponds to the ordered residues of the bovine decorin core crystal structure; Core protein without the glycosaminoglycan attachment region; exists in a monomer-dimer equilibrium; also called WT; wild-type mouse …) APLALISMCPYRCQCHLRVVQCSDLGLDKVPWDFPPDTTLLDLQNNKITEIKEGAFKNLKDLHTLILVNNKISKISPEAFKPLVKLERLYLSKNQLKELPEKMPRTLQELRVHENEITKLRKSDFNGLNNVLVIELGGNPLKNSGIENGAFQGLKSLSYIRISDTNITAIPQGLPTSLTEVHLDGNKITKVDAPSLKGLINLSKLGLSFNSITVMENGSLANVPHLRELHLDNNKLLRVPAGLAQHKYIQVVYLHNNNISAVGQNDFCRAGHPSRKASYSAVSLYGNPVRYWEIFPNTFRCVYVRSAIQLGNYKAAA	2	1370 ± 300 nM
mouse decorin core protein R151E (residues 45-354) (domain or fragment, N-linked glycans (four consensus sites for N-linked glycosylation), vector-encoded residues left at the N-terminus after cleavage of the BM-40 signal peptide; decorin, mouse, UniProt P28654, residues 45-354; the numbering includes the signal peptide; R151E reverses a charge in LRR5; source: HEK293 c18 cells, episomally transfected (pCEP-Pu), secreted; purified from conditioned medium (HisTrap, Superdex 200); not shown: His6, C-terminal, kept) APLALISMCPYRCQCHLRVVQCSDLGLDKVPWDFPPDTTLLDLQNNKITEIKEGAFKNLKDLHTLILVNNKISKISPEAFKPLVKLERLYLSKNQLKELPEKMPRTLQELEVHENEITKLRKSDFNGLNNVLVIELGGNPLKNSGIENGAFQGLKSLSYIRISDTNITAIPQGLPTSLTEVHLDGNKITKVDAPSLKGLINLSKLGLSFNSITVMENGSLANVPHLRELHLDNNKLLRVPAGLAQHKYIQVVYLHNNNISAVGQNDFCRAGHPSRKASYSAVSLYGNPVRYWEIFPNTFRCVYVRSAIQLGNYKAAA	2	470 ± 90 nM
mouse decorin core protein Y51A/R52A/Q54A (residues 45-354) (domain or fragment, N-linked glycans (four consensus sites for N-linked glycosylation), vector-encoded residues left at the N-terminus after cleavage of the BM-40 signal peptide; decorin, mouse, UniProt P28654, residues 45-354; the numbering includes the signal peptide; triple mutation in the N-terminal cap; also called Y51A/R52A/Q54 mutant; source: HEK293 c18 cells, episomally transfected (pCEP-Pu), secreted; purified from conditioned medium (HisTrap, Superdex 200); not shown: …) APLALISMCPAACACHLRVVQCSDLGLDKVPWDFPPDTTLLDLQNNKITEIKEGAFKNLKDLHTLILVNNKISKISPEAFKPLVKLERLYLSKNQLKELPEKMPRTLQELRVHENEITKLRKSDFNGLNNVLVIELGGNPLKNSGIENGAFQGLKSLSYIRISDTNITAIPQGLPTSLTEVHLDGNKITKVDAPSLKGLINLSKLGLSFNSITVMENGSLANVPHLRELHLDNNKLLRVPAGLAQHKYIQVVYLHNNNISAVGQNDFCRAGHPSRKASYSAVSLYGNPVRYWEIFPNTFRCVYVRSAIQLGNYKAAA	2	2300 ± 800 nM

— paper PMC3853298, “The Concave Face of Decorin Mediates Reversible Dimerization and Collagen Binding*” (The Journal of Biological Chemistry, 2013)
